Assay results from IntAct's records for PubMed 24019758.

B1: Transcription factor p65 (Mus musculus), Q04207 (parent)
chain: MDDLFPLIFPSEPAQASGPYVEIIEQPKQRGMRFRYKCEGRSAGSIPGERSTDTTKTHPTIKINGYTGPGTVRISLVTKDPPHRPHPHELVGKDCRDGYYEADLCPDRSIHSFQNLGIQCVKKRDLEQAISQRIQTNNNPFHVPIEEQRGDYDLNAVRLCFQVTVRDPAGRPLLLTPVLSHPIFDNRAPNTAELKICRVNRNSGSCLGGDEIFLLCDKVQKEDIEVYFTGPGWEARGSFSQADVHRQVAIVFRTPPYADPSLQAPVRVSMQLRRPSDRELSEPMEFQYLPDTDDRHRIEEKRKRTYETFKSIMKKSPFNGPTEPRPPTRRIAVPTRNSTSVPKPAPQPYTFPASLSTINFDEFSPMLLPSGQISNQALALAPSSAPVLAQTMVPSSAMVPLAQPPAPAPVLTPGPPQSLSAPVPKSTQAGEGTLSEALLHLQFDADEDLGALLGNSTDPGVFTDLASVDNSEFQQLLNQGVSMSHSTAEPMLMEYPEAITRLVTGSQRPPDPAPTPLGTSGLPNGLSGDEDFSSIADMDFSALLSQISS

Key:
[1] = variants of: B1; conditions: with cbp_mouse Crebbp
[2] = variants of: B1; conditions: with cbp_mouse Crebbp; remark: listed apart in the source
[3] = variants of: B1; conditions: with cbp_mouse Crebbp; remark: listed apart in the source
[4] = variants of: B1; conditions: with ep300_mouse Ep300, B2RWS6
[5] = variants of: B1; conditions: with cbp_mouse Crebbp; remark: listed apart in the source

Sequence of ep300_mouse Ep300, B2RWS6 (B2RWS6 whole entry): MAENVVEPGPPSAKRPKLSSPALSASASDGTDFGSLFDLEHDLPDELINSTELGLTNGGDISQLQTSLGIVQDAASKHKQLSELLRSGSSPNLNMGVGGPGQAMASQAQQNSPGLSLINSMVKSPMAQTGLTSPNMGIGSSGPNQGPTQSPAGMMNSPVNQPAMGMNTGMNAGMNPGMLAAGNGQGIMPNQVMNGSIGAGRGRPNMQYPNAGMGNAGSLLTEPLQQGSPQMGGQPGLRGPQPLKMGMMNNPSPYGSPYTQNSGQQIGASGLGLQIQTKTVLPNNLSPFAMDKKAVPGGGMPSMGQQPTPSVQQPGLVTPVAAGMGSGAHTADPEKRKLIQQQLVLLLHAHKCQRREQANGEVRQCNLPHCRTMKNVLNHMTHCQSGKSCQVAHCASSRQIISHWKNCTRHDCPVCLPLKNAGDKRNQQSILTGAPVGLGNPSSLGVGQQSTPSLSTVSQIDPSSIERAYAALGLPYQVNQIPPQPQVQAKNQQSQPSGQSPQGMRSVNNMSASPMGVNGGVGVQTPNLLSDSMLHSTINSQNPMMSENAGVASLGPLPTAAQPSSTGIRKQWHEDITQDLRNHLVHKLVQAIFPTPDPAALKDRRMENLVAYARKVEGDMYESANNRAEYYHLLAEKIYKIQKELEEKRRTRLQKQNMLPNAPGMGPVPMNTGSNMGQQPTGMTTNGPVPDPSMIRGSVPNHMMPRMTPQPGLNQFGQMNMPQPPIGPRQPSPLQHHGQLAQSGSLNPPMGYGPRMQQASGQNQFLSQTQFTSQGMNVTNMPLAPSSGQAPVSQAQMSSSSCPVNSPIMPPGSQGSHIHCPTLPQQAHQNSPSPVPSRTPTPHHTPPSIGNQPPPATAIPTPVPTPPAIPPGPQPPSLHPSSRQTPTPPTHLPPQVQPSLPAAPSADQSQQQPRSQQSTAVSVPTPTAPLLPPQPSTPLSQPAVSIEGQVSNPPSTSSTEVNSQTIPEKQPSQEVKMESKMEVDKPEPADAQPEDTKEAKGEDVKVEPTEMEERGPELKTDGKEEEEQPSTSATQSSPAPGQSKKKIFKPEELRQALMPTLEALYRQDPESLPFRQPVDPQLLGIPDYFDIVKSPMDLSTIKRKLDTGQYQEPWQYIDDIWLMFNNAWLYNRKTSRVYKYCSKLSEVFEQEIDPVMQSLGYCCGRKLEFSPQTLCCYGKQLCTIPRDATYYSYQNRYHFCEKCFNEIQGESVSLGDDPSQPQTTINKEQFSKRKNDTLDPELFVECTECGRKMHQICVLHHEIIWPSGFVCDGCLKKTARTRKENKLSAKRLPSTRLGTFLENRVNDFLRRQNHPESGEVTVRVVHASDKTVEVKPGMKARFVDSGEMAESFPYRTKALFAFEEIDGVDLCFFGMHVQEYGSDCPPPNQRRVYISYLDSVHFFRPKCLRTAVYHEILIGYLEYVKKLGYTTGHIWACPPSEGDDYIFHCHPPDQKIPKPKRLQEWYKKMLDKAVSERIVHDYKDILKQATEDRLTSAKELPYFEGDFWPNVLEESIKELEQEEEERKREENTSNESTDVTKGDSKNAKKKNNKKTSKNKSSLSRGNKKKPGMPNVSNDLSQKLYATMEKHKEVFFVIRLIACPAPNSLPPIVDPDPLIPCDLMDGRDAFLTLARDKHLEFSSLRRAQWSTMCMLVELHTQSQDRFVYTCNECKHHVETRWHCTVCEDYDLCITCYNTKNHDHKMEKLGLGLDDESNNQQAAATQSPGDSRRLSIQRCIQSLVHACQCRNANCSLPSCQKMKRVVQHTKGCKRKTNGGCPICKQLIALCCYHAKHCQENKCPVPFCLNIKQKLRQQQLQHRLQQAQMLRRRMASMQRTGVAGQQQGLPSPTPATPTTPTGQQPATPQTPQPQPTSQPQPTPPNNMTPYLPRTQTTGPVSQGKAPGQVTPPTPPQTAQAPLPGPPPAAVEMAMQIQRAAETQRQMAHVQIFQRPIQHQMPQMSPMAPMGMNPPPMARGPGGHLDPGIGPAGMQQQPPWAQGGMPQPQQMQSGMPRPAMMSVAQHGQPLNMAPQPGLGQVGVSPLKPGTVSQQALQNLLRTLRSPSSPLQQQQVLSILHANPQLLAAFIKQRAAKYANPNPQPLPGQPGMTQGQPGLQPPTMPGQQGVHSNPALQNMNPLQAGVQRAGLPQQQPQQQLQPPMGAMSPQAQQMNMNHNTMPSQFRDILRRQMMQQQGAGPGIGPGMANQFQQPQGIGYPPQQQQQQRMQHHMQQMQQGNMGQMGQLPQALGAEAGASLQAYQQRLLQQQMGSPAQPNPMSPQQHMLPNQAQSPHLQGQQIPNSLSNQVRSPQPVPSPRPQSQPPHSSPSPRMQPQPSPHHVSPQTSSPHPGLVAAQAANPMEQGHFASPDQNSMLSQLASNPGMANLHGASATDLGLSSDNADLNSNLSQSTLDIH

Row | Variant | effect of a mutation on the interaction [1] | effect of a mutation on the interaction [2] | effect of a mutation on the interaction [3] | effect of a mutation on the interaction [4] | effect of a mutation on the interaction [5]
1 | MDDLFPLIFPSEPAQASGPYVEIIEQPKQRGMRFRYKCEGRSAGSIPGERSTDTTKTHPTIKINGYTGPGTVRISLVTKDPPHRPHPHELVGKDCRDGYYEADLCPDRSIHSFQNLGIQCVKKRDLEQAISQRIQTNNNPFHVPIEEQRGDYDLNAVRLCFQVTVRDPAGRPLLLTPVLSHPIFDNRAPNTAELKICRVNRNSGSCLGGDEIFLLCDKVQKEDIEVYFTGPGWEARGSFSQADVHRQVAIVFRTPPYADPSLQAPVRVSMQLRRPSDRELSEPMEFQYLPDTDDRHRIEEKRKRTYETFKSIMKKSPFNGPTEPRPPTRRIAVPTRNSTSVPKPAPQPYTFPASLSTINFDEFSPMLLPSGQISNQALALAPSSAPVLAQTMVPSSAMVPLAQPPAPAPVLTPGPPQSLSAPVPKSTQAGEGTLSEALLHLQFDADEDAGALLGNSTDPGVFTDLASVDNSEAQQLLNQGVSMSHSTAEPMLMEYPEAITRLVTGSQRPPDPAPTPLGTSGLPNGLSGDEDFSSIADMDFSALLSQISS [L449A;F473A] | disrupting interaction strength | disrupting interaction strength | decreasing interaction strength | decreasing interaction strength | 
2 | MDDLFPLIFPSEPAQASGPYVEIIEQPKQRGMRFRYKCEGRSAGSIPGERSTDTTKTHPTIKINGYTGPGTVRISLVTKDPPHRPHPHELVGKDCRDGYYEADLCPDRSIHSFQNLGIQCVKKRDLEQAISQRIQTNNNPFHVPIEEQRGDYDLNAVRLCFQVTVRDPAGRPLLLTPVLSHPIFDNRAPNTAELKICRVNRNSGSCLGGDEIFLLCDKVQKEDIEVYFTGPGWEARGSFSQADVHRQVAIVFRTPPYADPSLQAPVRVSMQLRRPSDRELSEPMEFQYLPDTDDRHRIEEKRKRTYETFKSIMKKSPFNGPTEPRPPTRRIAVPTRNSTSVPKPAPQPYTFPASLSTINFDEFSPMLLPSGQISNQALALAPSSAPVLAQTMVPSSAMVPLAQPPAPAPVLTPGPPQSLSAPVPKSTQAGEGTLSEALLHLQFDADEDAGALLGNSTDPGVFTDLAAVDNSEAQQLLNQGVSMSHSTAEPMLMEYPEAITRLVTGSQRPPDPAPTPLGTSGLPNGLSGDEDFSSIADMDFSALLSQISS [L449A;S467A;F473A] | disrupting interaction strength |  | decreasing interaction strength |  | 
3 | MDDLFPLIFPSEPAQASGPYVEIIEQPKQRGMRFRYKCEGRSAGSIPGERSTDTTKTHPTIKINGYTGPGTVRISLVTKDPPHRPHPHELVGKDCRDGYYEADLCPDRSIHSFQNLGIQCVKKRDLEQAISQRIQTNNNPFHVPIEEQRGDYDLNAVRLCFQVTVRDPAGRPLLLTPVLSHPIFDNRAPNTAELKICRVNRNSGSCLGGDEIFLLCDKVQKEDIEVYFTGPGWEARGSFSQADVHRQVAIVFRTPPYADPSLQAPVRVSMQLRRPSDRELSEPMEFQYLPDTDDRHRIEEKRKRTYETFKSIMKKSPFNGPTEPRPPTRRIAVPTRNSTSVPKPAPQPYTFPASLSTINFDEFSPMLLPSGQISNQALALAPSSAPVLAQTMVPSSAMVPLAQPPAPAPVLTPGPPQSLSAPVPKSTQAGEGTLSEALLHLQFDADEDAGALLGNSTDPGVFTDLASVDNSEFQQLLNQGVSMSHSTAEPMLMEYPEAITRLVTGSQRPPDPAPTPLGTSGLPNGLSGDEDFSSIADMDFSALLSQISS [L449A] |  | disrupting interaction strength |  |  | decreasing interaction strength
4 | MDDLFPLIFPSEPAQASGPYVEIIEQPKQRGMRFRYKCEGRSAGSIPGERSTDTTKTHPTIKINGYTGPGTVRISLVTKDPPHRPHPHELVGKDCRDGYYEADLCPDRSIHSFQNLGIQCVKKRDLEQAISQRIQTNNNPFHVPIEEQRGDYDLNAVRLCFQVTVRDPAGRPLLLTPVLSHPIFDNRAPNTAELKICRVNRNSGSCLGGDEIFLLCDKVQKEDIEVYFTGPGWEARGSFSQADVHRQVAIVFRTPPYADPSLQAPVRVSMQLRRPSDRELSEPMEFQYLPDTDDRHRIEEKRKRTYETFKSIMKKSPFNGPTEPRPPTRRIAVPTRNSTSVPKPAPQPYTFPASLSTINFDEFSPMLLPSGQISNQALALAPSSAPVLAQTMVPSSAMVPLAQPPAPAPVLTPGPPQSLSAPVPKSTQAGEGTLSEALLHLQFDADEDLGALLGNSTDPGVFTDAASVDNSEFQQLLNQGVSMSHSTAEPMLMEYPEAITRLVTGSQRPPDPAPTPLGTSGLPNGLSGDEDFSSIADMDFSALLSQISS [L465A] |  | disrupting interaction strength |  |  | decreasing interaction strength
5 | MDDLFPLIFPSEPAQASGPYVEIIEQPKQRGMRFRYKCEGRSAGSIPGERSTDTTKTHPTIKINGYTGPGTVRISLVTKDPPHRPHPHELVGKDCRDGYYEADLCPDRSIHSFQNLGIQCVKKRDLEQAISQRIQTNNNPFHVPIEEQRGDYDLNAVRLCFQVTVRDPAGRPLLLTPVLSHPIFDNRAPNTAELKICRVNRNSGSCLGGDEIFLLCDKVQKEDIEVYFTGPGWEARGSFSQADVHRQVAIVFRTPPYADPSLQAPVRVSMQLRRPSDRELSEPMEFQYLPDTDDRHRIEEKRKRTYETFKSIMKKSPFNGPTEPRPPTRRIAVPTRNSTSVPKPAPQPYTFPASLSTINFDEFSPMLLPSGQISNQALALAPSSAPVLAQTMVPSSAMVPLAQPPAPAPVLTPGPPQSLSAPVPKSTQAGEGTLSEALLHLQFDADEDLGALLGNSTDPGVFTDLASVDNSEAQQLLNQGVSMSHSTAEPMLMEYPEAITRLVTGSQRPPDPAPTPLGTSGLPNGLSGDEDFSSIADMDFSALLSQISS [F473A] |  | disrupting interaction strength |  |  | 
6 | MDDLFPLIFPSEPAQASGPYVEIIEQPKQRGMRFRYKCEGRSAGSIPGERSTDTTKTHPTIKINGYTGPGTVRISLVTKDPPHRPHPHELVGKDCRDGYYEADLCPDRSIHSFQNLGIQCVKKRDLEQAISQRIQTNNNPFHVPIEEQRGDYDLNAVRLCFQVTVRDPAGRPLLLTPVLSHPIFDNRAPNTAELKICRVNRNSGSCLGGDEIFLLCDKVQKEDIEVYFTGPGWEARGSFSQADVHRQVAIVFRTPPYADPSLQAPVRVSMQLRRPADRELSEPMEFQYLPDTDDRHRIEEKRKRTYETFKSIMKKSPFNGPTEPRPPTRRIAVPTRNSTSVPKPAPQPYTFPASLSTINFDEFSPMLLPSGQISNQALALAPSSAPVLAQTMVPSSAMVPLAQPPAPAPVLTPGPPQSLSAPVPKSTQAGEGTLSEALLHLQFDADEDLGALLGNSTDPGVFTDLASVDNSEFQQLLNQGVSMSHSTAEPMLMEYPEAITRLVTGSQRPPDPAPTPLGTSGLPNGLSGDEDFSSIADMDFSALLSQISS [S276A] |  |  | decreasing interaction strength | decreasing interaction strength | 
7 | MDDLFPLIFPSEPAQASGPYVEIIEQPKQRGMRFRYKCEGRSAGSIPGERSTDTTKTHPTIKINGYTGPGTVRISLVTKDPPHRPHPHELVGKDCRDGYYEADLCPDRSIHSFQNLGIQCVKKRDLEQAISQRIQTNNNPFHVPIEEQRGDYDLNAVRLCFQVTVRDPAGRPLLLTPVLSHPIFDNRAPNTAELKICRVNRNSGSCLGGDEIFLLCDKVQKEDIEVYFTGPGWEARGSFSQADVHRQVAIVFRTPPYADPSLQAPVRVSMQLRRPSDRELSEPMEFQYLPDTDDRHRIEEKRKRTYETFKSIMKKSPFNGPTEPRPPTRRIAVPTRNSTSVPKPAPQPYTFPASLSTINFDEFSPMLLPSGQISNQALALAPSSAPVLAQTMVPSSAMVPLAQPPAPAPVLTPGPPQSLSAPVPKSTQAGEGTLSEALLHLQFDADEDLGALLGNSTDPGVFTDLAAVDNSEFQQLLNQGVSMSHSTAEPMLMEYPEAITRLVTGSQRPPDPAPTPLGTSGLPNGLSGDEDFSSIADMDFSALLSQISS [S467A] |  |  | decreasing interaction strength | decreasing interaction strength | 
